This is an account of results in article PMC5222340, “The Arginine Pairs and C-Termini of the Sso7c4 from Sulfolobus solfataricus Participate in Binding and Bending DNA”.

Data set [1] concerns the target T1, Sso7c4 wild-type (Sulfolobus solfataricus P2, UniProt A0A0E3K9N8 1-54). Kind of data set: tryptophan fluorescence quenching; 20 mM Tris-Cl pH 7.5, no added salt, 25 C; FP with 100 nM FAM-DNA, 1 h at room temperature. The settings on record: protein: recombinant; chain copies: 2; blunt, self-complementary.
Target sequence in this assay (A0A0E3K9N8 entry or part of it): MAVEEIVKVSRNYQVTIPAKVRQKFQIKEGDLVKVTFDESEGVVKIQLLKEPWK
The target of data set [2] is T1, Sso7c4 wild-type. Kind of data set: fluorescence polarization; 20 mM Tris-Cl pH 7.5, no added salt, 25 C; FP with 100 nM FAM-DNA, 1 h at room temperature. The following applies: protein: recombinant; chain copies: 2; label: 5'-FAM; blunt, self-complementary. On the technique in general: In fluorescence polarisation assays a small probe gives low polarisation when free and higher when bound to something large.
Target sequence in this assay (A0A0E3K9N8 entry or part of it): as above

Data set [3] has as its target T2, C-terminally truncated Sso7c4 (Sulfolobus solfataricus P2, UniProt A0A0E3K9N8 1-48, del49-54).
T2 chain: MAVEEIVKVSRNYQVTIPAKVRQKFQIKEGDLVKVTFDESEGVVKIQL
Described as above. The settings on record: protein: recombinant; chain copies: 2; label: 5'-FAM; blunt, self-complementary.

Data set [4] deals with T1, Sso7c4 wild-type. Kind of data set: bulk FRET; saturating protein; DNA bent; 20 mM Tris-Cl pH 7.5, no added salt, 25 C; FP with 100 nM FAM-DNA, 1 h at room temperature. The following applies: protein: recombinant; chain copies: 2; label: Cy3 and Cy5 on the 5' ends; blunt.
In data set [5] the target is T2, C-terminally truncated Sso7c4. Kind of data set: bulk FRET; saturating protein; DNA straightened; 20 mM Tris-Cl pH 7.5, no added salt, 25 C; FP with 100 nM FAM-DNA, 1 h at room temperature. The settings on record: protein: recombinant; chain copies: 2; label: Cy3 and Cy5 on the 5' ends; blunt.
Another data set deals with Sso7c4-R11A (Sulfolobus solfataricus P2, UniProt A0A0E3K9N8 1-54, R11A). Kind of data set: fluorescence polarization; 20 mM Tris-Cl pH 7.5, no added salt, 25 C; FP with 100 nM FAM-DNA, 1 h at room temperature. The following applies: protein: recombinant; chain copies: 2; label: 5'-FAM; blunt, self-complementary.
The next data set has as its target Sso7c4-R22A (Sulfolobus solfataricus P2, UniProt A0A0E3K9N8 1-54, R22A). The description is as above. The following applies: protein: recombinant; chain copies: 2; label: 5'-FAM; blunt, self-complementary.
For data set [6], the target named is T2, C-terminally truncated Sso7c4. Kind of data set: bulk FRET; saturating protein; slight change; 20 mM Tris-Cl pH 7.5, no added salt, 25 C; FP with 100 nM FAM-DNA, 1 h at room temperature. The settings on record: protein: recombinant; chain copies: 2; label: Cy3 and Cy5 on the 5' ends; blunt.

A word on the Kd: it is a measure of binding affinity in units of concentration.

Sso7c4-R22A, sequence (A0A0E3K9N8 entry or part of it R22A | R22A R22A): as the sequence (A0A0E3K9N8 entry or part of it) above, with R22A counted along it
Sso7c4-R11A, sequence (A0A0E3K9N8 entry or part of it R11A | R11A R11A): as the sequence (A0A0E3K9N8 entry or part of it) above, with R11A counted along it

B1: 20-bp DNA unlabeled (dsDNA)
DNA 1: CCAACACTGGCCAGTGTTGG
DNA 2: CCAACACTGGCCAGTGTTGG
Take B1: in the data set with Sso7c4 wild-type [1], the Kd is 22.8 µM.

B2: 5'-FAM-8-bp DNA (dsDNA)
DNA 1: CGCTAGCG
DNA 2: CGCTAGCG
Turning to B2, the results for the Kd (with Sso7c4 wild-type [2]; in data set [3]) were 14.2 ± 0.26 µM and 15.9 ± 0.53 µM, respectively.

B3: 30 bp FRET DNA (dsDNA)
DNA 1: CGTGCTCTGCGATCTCTTCGATAACCATAG
DNA 2: CTATGGTTATCGAAGAGATCGCAGAGCACG
Turning to B3, the binding result (in the data set with Sso7c4 wild-type [4]; in data set [5]) was “binds” in each case.

B4: 5'-FAM-20-bp DNA (dsDNA)
DNA 1: CCAACACTGGCCAGTGTTGG
DNA 2: CCAACACTGGCCAGTGTTGG
On to B4, for which the Kd with Sso7c4-R11A stood at 3.19 ± 0.12 µM; with Sso7c4-R22A it was 5.07 ± 0.15 µM; in the data set with Sso7c4 wild-type [2], 2.73 ± 0.18 µM; in data set [3], 12 ± 0.53 µM.

B5: 24 bp FRET DNA (dsDNA)
DNA 1: CGTGCTCTGCGATCTCTTCGATAA
DNA 2: TTATCGAAGAGATCGCAGAGCACG
Take B5: the binding result (with Sso7c4 wild-type [4]; in data set [6]) was “binds” in each case.

B6: 5'-FAM-10-bp DNA (dsDNA)
DNA 1: CCTACGTAGG
DNA 2: CCTACGTAGG
Consider B6, for which the Kd came out at 3.12 ± 0.16 µM in the data set with Sso7c4 wild-type [2] and 11 ± 0.41 µM in data set [3].
